Six molecules from paper PMC2206725, “Characterization of a negative transcriptional element in the BRCA1 promoter” can be followed below.

B1: UPFR6mUP (dsDNA)
DNA 1: CCTTCTTTTAAGTTTCAACGGAAAAGCGCGGGAATTACAG
DNA 2: CTGTAATTCCCGCGCTTTTCCGTTGAAACTTAAAAGAAGG
B2: UPFR6mGAmUS (dsDNA)
DNA 1: CCTTGGTTTAAGTGGCGGTTTAAAAGCGCGGGAATTACAG
DNA 2: CTGTAATTCCCGCGCTTTTAAACCGCCACTTAAACCAAGG
B3: UP (dsDNA)
DNA 1: CCTTGGTTTCCGTGGCAACGGAACCTT
DNA 2: AAGGTTCCGTTGCCACGGAAACCAAGG
B4: UPFR6 (dsDNA)
DNA 1: CCTTGGTTTCCGTGGCAACGGAAAAGCGCGGGAATTACAG
DNA 2: CTGTAATTCCCGCGCTTTTCCGTTGCCACGGAAACCAAGG
B5: UPFR6mUS (dsDNA)
DNA 1: B2 DNA 1 with A10C, A11C
DNA 2: B2 DNA 2 with T30G, T31G
B6: UPFR6mGA (dsDNA)
DNA 1: B4 DNA 1 with C10A, C11A
DNA 2: B4 DNA 2 with G30T, G31T

Positions count from the first letter of the chain named.

In the data set the target is GABP alpha (MBP fusion from pMAL-C2);GABP beta (MBP fusion from pMAL-C2) (Homo sapiens;Homo sapiens, UniProt Q06546;Q06547 1-454;1-395, |). Kind of data set: EMSA; Bandshift conditions as in ref [16], not given; 6% nondenaturing acrylamide gel; recombinant proteins eluted in 25 mM HEPES pH 7.6, 0.1 mM EDTA, 40 mM KCl, 10%. Conditions: protein: recombinant;recombinant; tags: MBP N-terminal (pMAL-C2 vector);MBP N-terminal (pMAL-C2 vector); copies: 1;1; label: 32P. Background: In EMSA bound probe runs differently from free probe, usually more slowly.
Chain of GABP alpha (MBP fusion from pMAL-C2);GABP beta (MBP fusion from pMAL-C2) (Q06546 whole entry, chain 1 of 2, the tested form may be a part): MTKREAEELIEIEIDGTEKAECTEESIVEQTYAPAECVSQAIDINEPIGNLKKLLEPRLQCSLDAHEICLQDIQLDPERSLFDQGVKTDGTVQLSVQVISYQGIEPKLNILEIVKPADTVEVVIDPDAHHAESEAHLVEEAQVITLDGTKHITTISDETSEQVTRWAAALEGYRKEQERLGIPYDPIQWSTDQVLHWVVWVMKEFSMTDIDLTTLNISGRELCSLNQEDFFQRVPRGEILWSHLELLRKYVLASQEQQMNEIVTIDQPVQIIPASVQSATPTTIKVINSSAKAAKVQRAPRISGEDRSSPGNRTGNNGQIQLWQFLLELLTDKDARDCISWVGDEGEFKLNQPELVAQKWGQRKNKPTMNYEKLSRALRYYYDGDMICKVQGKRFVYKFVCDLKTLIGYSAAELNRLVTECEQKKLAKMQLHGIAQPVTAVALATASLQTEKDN
Chain of GABP alpha (MBP fusion from pMAL-C2);GABP beta (MBP fusion from pMAL-C2) (Q06547 whole entry, chain 2 of 2, the tested form may be a part): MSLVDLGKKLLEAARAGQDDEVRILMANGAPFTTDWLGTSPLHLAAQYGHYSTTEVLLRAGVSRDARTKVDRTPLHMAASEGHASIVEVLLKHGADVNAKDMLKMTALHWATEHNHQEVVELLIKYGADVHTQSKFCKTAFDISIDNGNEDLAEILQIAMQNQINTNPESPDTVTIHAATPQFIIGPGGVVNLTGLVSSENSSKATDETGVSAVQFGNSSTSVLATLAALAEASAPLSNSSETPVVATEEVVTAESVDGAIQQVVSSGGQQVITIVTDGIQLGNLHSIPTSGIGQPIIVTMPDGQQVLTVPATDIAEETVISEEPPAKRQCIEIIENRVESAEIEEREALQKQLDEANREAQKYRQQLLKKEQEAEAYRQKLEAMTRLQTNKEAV
Regarding B1, the binding result is “no binding”.

Regarding B2, the binding result was “no binding”.

B3: the binding result is “binds”.

Consider B4, for which the binding result is “binds”.

B5: the binding result is recorded as “binds”.

With B6, the binding result was “no binding”.
